Data reported in patent US20060178308A1.

T1: truncated recombinant rat factor H protein SCR1-7
T1 chain: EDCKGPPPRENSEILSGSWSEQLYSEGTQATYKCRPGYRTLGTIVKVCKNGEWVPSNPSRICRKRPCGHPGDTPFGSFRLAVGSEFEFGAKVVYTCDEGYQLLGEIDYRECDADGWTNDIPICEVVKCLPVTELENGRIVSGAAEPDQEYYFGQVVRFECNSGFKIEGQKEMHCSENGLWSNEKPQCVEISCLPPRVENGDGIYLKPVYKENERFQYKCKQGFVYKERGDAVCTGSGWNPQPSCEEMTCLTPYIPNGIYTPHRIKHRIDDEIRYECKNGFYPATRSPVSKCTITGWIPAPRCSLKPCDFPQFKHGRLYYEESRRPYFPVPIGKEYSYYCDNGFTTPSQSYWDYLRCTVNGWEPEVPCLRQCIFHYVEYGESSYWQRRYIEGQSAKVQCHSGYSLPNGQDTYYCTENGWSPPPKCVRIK

T2: recombinant human FHp43, P08603
T2 chain: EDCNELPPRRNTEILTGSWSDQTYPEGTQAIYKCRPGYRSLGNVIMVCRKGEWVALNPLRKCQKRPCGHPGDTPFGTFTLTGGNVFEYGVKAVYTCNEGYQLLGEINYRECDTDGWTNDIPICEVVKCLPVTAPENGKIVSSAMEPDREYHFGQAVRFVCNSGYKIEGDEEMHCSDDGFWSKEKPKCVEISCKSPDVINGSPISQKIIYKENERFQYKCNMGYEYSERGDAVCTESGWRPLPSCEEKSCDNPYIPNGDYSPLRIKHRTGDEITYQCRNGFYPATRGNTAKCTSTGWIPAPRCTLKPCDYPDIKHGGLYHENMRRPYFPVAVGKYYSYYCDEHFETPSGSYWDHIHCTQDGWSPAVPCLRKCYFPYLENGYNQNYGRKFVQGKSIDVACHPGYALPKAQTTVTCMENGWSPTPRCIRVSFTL

B1: rat Factor I (protein)
chain: KNTPASGQPQEDLVEQKCLLKNYTHHSCDKVFCQPWQKCIEGTCACKLPYQCPKAGTPVCATNGRGYPTYCHLKSFECLHPEIKFSNNGTCTAEEKFNVSLIYGSTDTEGIVQVKLVDQDEKMFICKNSWSTVEANVACFDLGFPLGVRDIQGRFNIPVNHKINSTECLHVRCQGVETSLAECTFTKKSSKAPHGLAGVVCYTQDADFPTSQSFQCVNGKRIPQEKACDGVNDCGDQSDELCCKGCRGQAFLCKSGVCIPNQRKCNGEVDCITGEDESGCEEDKKNKIHKGLARSDQGGETEIETEETEMLTPDMDTERKRIKSLLPKLSCGVKRNTHIRRKRVVGGKPAEMGDYPWQVAIKDGDRITCGGIYIGGCWILTAAHCVRPSRYRNYQVWTSLLDWLKPNSQLAVQGVSRVVVHEKYNGATYQNDIALVEMKKHPGKKECELINSVPACVPWSPYLFQPNDRCIISGWGREKDNQKVYSLRWGEVDLIGNCSRFYPGRYYEKEMQCAGTSDGSIDACKGDSGGPLVCKDVNNVTYVWGIVSWGENCGKPEFPGVYTRVASYFDWISYYVGRPLVSQYNV
B2: human Factor I (protein)
chain: KVTYTSQEDLVEKKCLAKKYTHLSCDKVFCQPWQRCIEGTCVCKLPYQCPKNGTAVCATNRRSFPTYCQQKSLECLHPGTKFLNNGTCTAEGKFSVSLKHGNTDSEGIVEVKLVDQDKTMFICKSSWSMREANVACLDLGFQQGADTQRRFKLSDLSINSTECLHVHCRGLETSLAECTFTKRRTMGYQDFADVVCYTQKADSPMDDFFQCVNGKYISQMKACDGINDCGDQSDELCCKACQGKGFHCKSGVCIPSQYQCNGEVDCITGEDEVGCAGFASVTQEETEILTADMDAERRRIKSLLPKLSCGVKNRMHIRRKRIVGGKRAQLGDLPWQVAIKDASGITCGGIYIGGCWILTAAHCLRASKTHRYQIWTTVVDWIHPDLKRIVIEYVDRIIFHENYNAGTYQNDIALIEMKKDGNKKDCELPRSIPACVPWSPYLFQPNDTCIVSGWGREKDNERVFSLQWGEVKLISNCSKFYGNRFYEKEMECAGTYDGSIDACKGDSGGPLVCMDANNVTYVWGVVSWGENCGKPEFPGVYTKVANYFDWISYHVGRPFISQYNV

Key:
[1] = biological target: T1, truncated recombinant rat factor H …
[2] = biological target: T2, recombinant human FHp43, P08603

Protein | cofactor activity (43 kDa a' cleavage band of the C3b alpha-chain, SDS-PAGE/autoradiography); concentration of rat FHSCR1-7 in the assay [1] | cofactor activity (43 kDa a' cleavage band of the C3b alpha-chain, SDS-PAGE/autoradiography); concentration of FHp43 in the assay [2]
B1 | exhibit cofactor activity even at low concentrations (10 mM) when incubated with C3b and factor I of the corresponding species | –
B2 | – | exhibit cofactor activity even at low concentrations (10 mM) when incubated with C3b and factor I of the corresponding species
